# T1: Spycatcher-WELQ-Tem1 fusion protein (Spycatcher followed by a SplB protease site with a P1' methionine and the lactamase Tem1), P62593
# T1 chain: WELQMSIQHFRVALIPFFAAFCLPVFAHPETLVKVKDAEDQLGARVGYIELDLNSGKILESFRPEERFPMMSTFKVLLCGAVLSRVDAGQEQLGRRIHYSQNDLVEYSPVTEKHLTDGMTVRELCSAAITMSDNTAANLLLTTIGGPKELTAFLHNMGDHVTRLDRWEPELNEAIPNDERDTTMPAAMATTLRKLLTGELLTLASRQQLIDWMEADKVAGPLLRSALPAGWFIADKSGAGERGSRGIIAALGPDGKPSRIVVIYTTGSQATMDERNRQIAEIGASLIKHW
# B1: SplB protease with ARVCF peptide truncated by 4 amino acids (DSWV) (protein)
# chain: ENNVTKVKDTNIFPYTGVVAFKSATGFVVGKNTILTNKHVSKNYKVGDRITAHPNSDKGNGGIYSIKKIINYPGKEDVSVIQVEERAIERGPKGFNFNDNVTPFKYAAGAKAGERIKVIGYPHPYKNKYVLYESTGPVMSVEGSSIVYSAHTESGNSGSPVLNSNNELVGIHFASDVKNDDNRNAYGVYFTPEIKKFIAENIDKDSWV
# B2: SplB protease with full-length ARVCF peptide tag at C-terminus (protein)
# chain: ENNVTKVKDTNIFPYTGVVAFKSATGFVVGKNTILTNKHVSKNYKVGDRITAHPNSDKGNGGIYSIKKIINYPGKEDVSVIQVEERAIERGPKGFNFNDNVTPFKYAAGAKAGERIKVIGYPHPYKNKYVLYESTGPVMSVEGSSIVYSAHTESGNSGSPVLNSNNELVGIHFASDVKNDDNRNAYGVYFTPEIKKFIAENIDKPQPVDSWV
# B3: SplB protease with shortened ARVC-pep tag (the least shortened of the 3 progressively shortened peptide tags) (protein)
# chain: ENNVTKVKDTNIFPYTGVVAFKSATGFVVGKNTILTNKHVSKNYKVGDRITAHPNSDKGNGGIYSIKKIINYPGKEDVSVIQVEERAIERGPKGFNFNDNVTPFKYAAGAKAGERIKVIGYPHPYKNKYVLYESTGPVMSVEGSSIVYSAHTESGNSGSPVLNSNNELVGIHFASDVKNDDNRNAYGVYFTPEIKKFIAENIDK
# B4: TEV protease fused to the optimised 4-amino acid truncated ARVCF peptide (protein)
# chain: GESLFKGPRDYNPISSTICHLTNESDGHTTSLYGIGFGPFIITNKHLFRRNNGTLLVQSLHGVFKVKNTTTLQQHLIDGRDMIIIRMPKDFPPFPQKLKFREPQREERICLVTTNFQTKSMSSMVSDTSCTFPSSDGIFWKHWIQTKDGQCGSPLVSTRDGFIVGIHSASNFTNTNNYFTSVPKNFMELLTNQEAQQWVSGWRLNADSVLWGGHKVFMSKPEEPFQPVKEATQLMNELVYSQDSWV
# B5: wild-type TEV protease, untagged (protein)
# chain: GESLFKGPRDYNPISSTICHLTNESDGHTTSLYGIGFGPFIITNKHLFRRNNGTLLVQSLHGVFKVKNTTTLQQHLIDGRDMIIIRMPKDFPPFPQKLKFREPQREERICLVTTNFQTKSMSSMVSDTSCTFPSSDGIFWKHWIQTKDGQCGSPLVSTRDGFIVGIHSASNFTNTNNYFTSVPKNFMELLTNQEAQQWVSGWRLNADSVLWGGHKVFMSKPEEPFQPVKEATQLMNELVYSQ
# B6: HIS-SplB-ARVC-pep (protein)
# chain: B2 chain
# B7: HIS-TEV-AP4 (protein)
# chain: B4 chain
# B8: HIS-TEV (protein)
# chain: B5 chain
# B9: Commercial SplB protease, non-tagged (protein)
# chain: B3 chain
# Experiments:
# [1] = biological target: ePDZ-b-WELQ-OFP fusion substrate
# [2] = biological target: ePDZ-b-ENLYFQ-OFP fusion protein
# [3] = biological target: HIS-ePDZ-b-WELQ-OFP fusion substrate protein
# [4] = biological target: HIS-ePDZ-b-ENLYFQ-OFP fusion substrate protein
# [5] = biological target: Spycatcher-WELQ-LSSmOrange fusion protein
# [6] = biological target: T1, Spycatcher-WELQ-Tem1 fusion protein …
protein,measurement,setting,value
B1,"cleavage activity at sub-stoichiometric protease (gel, FIG. 5, lanes 16, 18-19)",[1],"At sub-stoichiometric amounts, 3 and 4 amino acid truncations of the ARVCF peptide showed clear improvements in activity compared to full-length peptide"
same,"cleavage efficiency at high protease concentration (gel, FIG. 5, lanes 2-5)",[1],"At high protease concentration, no variation was observed in cleavage efficiency"
same,"cleavage to yield native OFP (gel, FIG. 5)",[1],These tagged proteases all showed improved cleavage to yield native OFP (red arrow) compared to SplB protease tagged with a non-specific C-terminal peptide (SplB-CON) and commercial nontagged SplB protease (SplB-COM)
B2,"cleavage efficiency at high protease concentration (gel, FIG. 5, lanes 2-5)",[1],"At high protease concentration, no variation was observed in cleavage efficiency"
same,"cleavage of the fusion substrate to native OFP (gel, FIG. 5)",[1],this was notably more efficient for SplB-AP compared to SplB-COM and SplB fused to a control peptide that does not interact with ePDZ-b (SplB-CON)
same,"cleavage to yield native OFP (gel, FIG. 5)",[1],These tagged proteases all showed improved cleavage to yield native OFP (red arrow) compared to SplB protease tagged with a non-specific C-terminal peptide (SplB-CON) and commercial nontagged SplB protease (SplB-COM)
B3,"cleavage efficiency at high protease concentration (gel, FIG. 5, lanes 2-5)",[1],"At high protease concentration, no variation was observed in cleavage efficiency"
same,"cleavage to yield native OFP (gel, FIG. 5)",[1],These tagged proteases all showed improved cleavage to yield native OFP (red arrow) compared to SplB protease tagged with a non-specific C-terminal peptide (SplB-CON) and commercial nontagged SplB protease (SplB-COM)
B4,"cleavage of the fusion substrate to native OFP (gel, FIG. 6A)",[2],The results show clearly improved cleavage when TEV is fused to the optimised 4-amino acid truncated ARVCF peptide (TEV-AP4)
same,"generation of native OFP over time (gel, FIG. 6A)",[2],Native OFP (arrowed red) was rapidly generated through use of TEV-AP4 compared to endogenous TEV
same,"incubation time to near complete cleavage (gel, FIG. 6A)",[2],near completion around 2.5 hours
same,"incubation time to notable cleavage (gel, FIG. 6A)",[2],Notable cleavage was observed after only 30 minutes incubation
B5,"cleavage of the fusion substrate to native OFP (gel, FIG. 6A)",[2],wild-type TEV protease did not show significant cleavage even after 24 hours incubation
same,"generation of native OFP over time (gel, FIG. 6A)",[2],Native OFP (arrowed red) was rapidly generated through use of TEV-AP4 compared to endogenous TEV
B6,"on-column cleavage to native OFP (gel, FIG. 7)",[3],"Addition of 30 mM imidazole alleviated this constraint, resulting in improved cleavage efficiencies using histidine tagged ePDZ-b -WELQ-OFP and SplB-AP proteins"
B7,"yield of native OFP after on-column cleavage (gel, FIG. 8, lanes 6 and 15)",[4],the yield of native OFP was significantly increased when histidine tagged TEV-AP4 was used compared to histidine tagged TEV
B8,"yield of native OFP after on-column cleavage (gel, FIG. 8, lanes 6 and 15)",[4],the yield of native OFP was significantly increased when histidine tagged TEV-AP4 was used compared to histidine tagged TEV
B9,"cleavage of the fusion substrate to native OFP (gel, FIG. 5)",[1],Neither SplB-COM or Spl-CON was able to completely digest the fusion substrate
same,"cleavage of the fusion protein to native LSSmOrange (gel, FIG. 4)",[5],A similar experiment with LSSmOrange replacing Tem1 yielded the same result
same,"cleavage of the fusion protein to native Tem1 (gel, FIG. 3)",[6],"Commercial SplB protease, lacking the fused spytag, was only able to produce minimal native Tem1"
